How the values were obtained:
[1] = target: the molecule itself; assay: SEC + other: negative-stain EM
[2] = target: T1, NLRP1 (wild-type full-length human NLRP1) (human, UniProt Q9C000-1); assay: co-IP
T1 sequence: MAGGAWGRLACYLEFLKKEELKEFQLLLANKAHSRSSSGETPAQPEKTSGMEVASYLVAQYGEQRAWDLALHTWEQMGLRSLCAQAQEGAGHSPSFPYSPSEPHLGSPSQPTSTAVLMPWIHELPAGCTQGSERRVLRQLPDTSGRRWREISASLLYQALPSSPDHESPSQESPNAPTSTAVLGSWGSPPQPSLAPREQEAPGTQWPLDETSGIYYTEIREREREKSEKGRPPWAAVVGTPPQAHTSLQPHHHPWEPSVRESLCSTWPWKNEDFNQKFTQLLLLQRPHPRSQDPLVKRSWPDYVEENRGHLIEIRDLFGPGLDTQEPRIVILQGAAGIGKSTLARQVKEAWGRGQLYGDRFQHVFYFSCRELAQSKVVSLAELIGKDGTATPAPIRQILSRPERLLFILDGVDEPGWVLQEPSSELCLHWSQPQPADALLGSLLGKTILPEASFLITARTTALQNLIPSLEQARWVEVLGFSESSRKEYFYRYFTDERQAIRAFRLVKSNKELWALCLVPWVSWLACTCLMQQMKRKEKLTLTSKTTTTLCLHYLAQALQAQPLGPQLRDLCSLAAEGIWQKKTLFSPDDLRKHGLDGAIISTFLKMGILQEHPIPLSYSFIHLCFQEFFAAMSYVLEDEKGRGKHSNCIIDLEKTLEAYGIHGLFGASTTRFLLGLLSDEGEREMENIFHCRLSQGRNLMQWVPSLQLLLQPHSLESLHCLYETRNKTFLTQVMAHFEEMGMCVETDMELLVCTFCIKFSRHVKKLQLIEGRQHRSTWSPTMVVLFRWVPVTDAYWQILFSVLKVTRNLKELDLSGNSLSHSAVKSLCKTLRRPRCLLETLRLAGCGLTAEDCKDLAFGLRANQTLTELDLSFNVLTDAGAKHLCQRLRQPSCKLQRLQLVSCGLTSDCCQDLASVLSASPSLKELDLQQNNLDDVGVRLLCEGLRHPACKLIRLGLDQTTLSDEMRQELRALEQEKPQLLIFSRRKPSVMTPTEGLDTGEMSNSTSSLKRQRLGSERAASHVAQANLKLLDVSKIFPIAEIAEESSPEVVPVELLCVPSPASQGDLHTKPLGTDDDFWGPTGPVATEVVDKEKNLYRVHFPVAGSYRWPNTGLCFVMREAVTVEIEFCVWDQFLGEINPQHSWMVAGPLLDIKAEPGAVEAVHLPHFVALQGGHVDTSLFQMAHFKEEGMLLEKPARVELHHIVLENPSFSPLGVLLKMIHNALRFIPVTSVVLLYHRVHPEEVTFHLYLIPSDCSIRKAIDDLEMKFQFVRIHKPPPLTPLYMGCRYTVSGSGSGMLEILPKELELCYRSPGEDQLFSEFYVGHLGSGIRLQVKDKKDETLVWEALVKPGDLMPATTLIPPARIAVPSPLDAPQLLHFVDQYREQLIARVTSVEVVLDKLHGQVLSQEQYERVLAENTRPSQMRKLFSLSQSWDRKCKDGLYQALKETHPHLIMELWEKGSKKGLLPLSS

B1: MBP-NLRP1 NACHT-LRR R726W mutant (domain or fragment)
chain: GRPPWAAVVGTPPQAHTSLQPHHHPWEPSVRESLCSTWPWKNEDFNQKFTQLLLLQRPHPRSQDPLVKRSWPDYVEENRGHLIEIRDLFGPGLDTQEPRIVILQGAAGIGKSTLARQVKEAWGRGQLYGDRFQHVFYFSCRELAQSKVVSLAELIGKDGTATPAPIRQILSRPERLLFILDGVDEPGWVLQEPSSELCLHWSQPQPADALLGSLLGKTILPEASFLITARTTALQNLIPSLEQARWVEVLGFSESSRKEYFYRYFTDERQAIRAFRLVKSNKELWALCLVPWVSWLACTCLMQQMKRKEKLTLTSKTTTTLCLHYLAQALQAQPLGPQLRDLCSLAAEGIWQKKTLFSPDDLRKHGLDGAIISTFLKMGILQEHPIPLSYSFIHLCFQEFFAAMSYVLEDEKGRGKHSNCIIDLEKTLEAYGIHGLFGASTTRFLLGLLSDEGEREMENIFHCRLSQGRNLMQWVPSLQLLLQPHSLESLHCLYETWNKTFLTQVMAHFEEMGMCVETDMELLVCTFCIKFSRHVKKLQLIEGRQHRSTWSPTMVVLFRWVPVTDAYWQILFSVLKVTRNLKELDLSGNSLSHSAVKSLCKTLRRPRCLLETLRLAGCGLTAEDCKDLAFGLRANQTLTELDLSFNVLTDAGAKHLCQRLRQPSCKLQRLQLVSCGLTSDCCQDLASVLSASPSLKELDLQQNNLDDVGVRLLCEGLRHPACKLIRLGLDQTTLSDEMRQELRALEQEKPQLLIFSRRKPSVMTP
[1]
  binding result: binds

B2: MBP-NLRP1 NACHT-LRR F787_R843del mutant (domain or fragment)
chain: GRPPWAAVVGTPPQAHTSLQPHHHPWEPSVRESLCSTWPWKNEDFNQKFTQLLLLQRPHPRSQDPLVKRSWPDYVEENRGHLIEIRDLFGPGLDTQEPRIVILQGAAGIGKSTLARQVKEAWGRGQLYGDRFQHVFYFSCRELAQSKVVSLAELIGKDGTATPAPIRQILSRPERLLFILDGVDEPGWVLQEPSSELCLHWSQPQPADALLGSLLGKTILPEASFLITARTTALQNLIPSLEQARWVEVLGFSESSRKEYFYRYFTDERQAIRAFRLVKSNKELWALCLVPWVSWLACTCLMQQMKRKEKLTLTSKTTTTLCLHYLAQALQAQPLGPQLRDLCSLAAEGIWQKKTLFSPDDLRKHGLDGAIISTFLKMGILQEHPIPLSYSFIHLCFQEFFAAMSYVLEDEKGRGKHSNCIIDLEKTLEAYGIHGLFGASTTRFLLGLLSDEGEREMENIFHCRLSQGRNLMQWVPSLQLLLQPHSLESLHCLYETRNKTFLTQVMAHFEEMGMCVETDMELLVCTFCIKFSRHVKKLQLIEGRQHRSTWSPTMVVLLAGCGLTAEDCKDLAFGLRANQTLTELDLSFNVLTDAGAKHLCQRLRQPSCKLQRLQLVSCGLTSDCCQDLASVLSASPSLKELDLQQNNLDDVGVRLLCEGLRHPACKLIRLGLDQTTLSDEMRQELRALEQEKPQLLIFSRRKPSVMTP
[1]
  binding result: binds

B3: CARD8-T60 isoform (full-length) (natural protein)
chain: MEKKECPEKSSSSEEELPRRDSGSSRNIDASKLIRLQGSRKLLVDNSIRELQYTKTGIFFQAEACVTNDTVYRELPCVSETLCDISHFFQEDDETEAEPLLFRAVPECQLSGGDIPSVSEEQESSEGQDSGDICSEENQIVSSYASKVCFEIEEDYKNRQFLGPEGNVDVELIDKSTNRYSVWFPTAGWYLWSATGLGFLVRDEVTVTIAFGSWSQHLALDLQHHEQWLVGGPLFDVTAEPEEAVAEIHLPHFISLQAGEVDVSWFLVAHFKNEGMVLEHPARVEPFYAVLESPSFSLMGILLRIASGTRLSIPITSNTLIYYHPHPEDIKFHLYLVPSDALLTKAIDDEEDRFHGVRLQTSPPMEPLNFGSSYIVSNSANLKVMPKELKLSYRSPGEIQHFSKFYAGQMKEPIQLEITEKRHGTLVWDTEVKPVDLQLVAASAPPPFSGAAFVKENHRQLQARMGDLKGVLDDLQDNEVLTENEKELVEQEKTRQSKNEALLSMVEKKGDLALDVLFRSISERDPYLVSYLRQQNL
[2]
  binding result: binds
